{"source": "the DeepSol protein solubility set", "data": [{"assay": "soluble on expression in E. coli; label from the status in PepcDB or PDB records", "values": [{"sequence": "MFDRLKNGEKIAPIVKEVESQITEVHKRADEVIESNQFRVLESFGKHKISDSHFIPTTGYGYDDIGRDTLEKVYADVFGAEAGLVRPQIISGTHAISTALFGILRPGDELLYITGKPYDTLEEIVGVRGKGVGSFKEYNIGYNAVPLTEGGLVDFEAVAAAIHSNTKMIGIQRSKGYATRPSFTISQIKEMIAFVKEIKPDVVVFVDNCYGEFIEEQEPCHVGADLMAGSLIKNPGGGIVKTGGYIVGKEQYVEACAYRLTSPGIGAEAGASLYSLQEMYQGFFLAPHVAGQALKGAIFTAAFLEKLGMNTSPAWNAPRTDLIQSVQFDDKDRMIAFCQAIQYASPINSHFTPYANYMPGYEDDVIMAAGTFIQGASIELSADGPIRPPYVAYVQGGLTYSHVKIAICSAIDELIEKNLLTISLEHHHHHH", "soluble on expression in E. coli": "soluble"}, {"sequence": "MSKKEETIFFRIEKENRPESSKKEEDENSTEEMTTLNHASVTLDHSAFAIADKDGFKMYQLNPLHFRMYKDYVIKVGPVRLVKQDGNSRRIIYVSALAGGRFAQNNLMIFDVARNEEYFEITTPSRYGPITNIHVSPNRLVALNPNRMFVWTYPDDIKQIRSEDIRSNPKGISAMSYDPTTAACYLAYPGFKTGSVQIMHLNALTARESKSPIVIEAHLTDIAQVALNCQGTLVATGSTKGTVIRVFDARTKGPLYELRRGTVQAHLQCMAFSPCSSYLAVASDKGTLHMFGIRDAEPQKKKNVLERSRGSSSIVKIQLDRPVMAIGFGKIPETPKNLQSIIAICADATYWRHEFYKDNTGNFTSHFGSYDELIEVANDSSFFRTPVE", "soluble on expression in E. coli": "not soluble"}, {"sequence": "MLTIQFLCPLPNGLHARPAWELKEQCSQWQSEITFINHRQNAKADAKSSLALIGTGTLFNDSCSLNISGSDEEQARRVLEEYIQVRFIDSDSVQPTQAELTAHPLPRSLSRLNPDLLYGNVLASGVGVGTLTLLQSDSLDSYRAIPASAQDSTRLEHSLATLAEQLNQQLRERDGESKTILSAHLSLIQDDEFAGNIRRLMTEQHQGLGAAIISNMEQVCAKLSASASDYLRERVSDIRDISEQLLHITWPELKPRNKLVLEKPTILVAEDLTPSQFLSLDLKNLAGMILEKTGRTSHTLILARASAIPVLSGLPLDAIARYAGQPAVLDAQCGVLAINPNDAVSGYYQVAQTLADKRQKQQAQAAAQLAYSRDNKRIDIAANIGTALEAPGAFANGAEGVGLFRTEMLYMDRDSAPDEQEQFEAYQQVLLAAGDKPIIFRTMDIGGDKSIPYLNIPQEENPFLGYRAVRIYPEFAGLFRTQLRAILRAASFGNAQLMIPMVHSLDQILWVKGEIQKAIVELKRDGLRHAETITLGIMVEVPSVCYIIDHFCDEVDFFSIGSNDMTQYLYAVDRNNPRVSPLYNPITPSFLRMLQQIVTTAHQRGKWVGICGELGGESRYLPLLLGLGLDELSMSSPRIPAVKSQLRQLDSEACRELARQACECRSAQEIEALLTAFTPEEDVRPLLALENIFVDQDFSNKEQAIQFLCGNLGVNGRTEHPFELEEDVWQREEIVTTGVGFGVAIPHTKSQWIRHSSISIARLAKPIGWQSEMGEVELVIMLTLGANEGMNHVKVFSQLARKLVNKNFRQSLFAAQDAQSILTLLETELTF", "soluble on expression in E. coli": "soluble"}, {"sequence": "MGSDKIHHHHHHMETISQEKAIEAMPLEGAERTRFWRDPRFKGMECLSATFITHEFAPHAHDTFSIGAIEAGSQISTIKGERSQTGPGDLYLINPDEIHDGHPGHEGYRYRMVYPPTDLLVEILEDVTGRSFKGTPSFSRLLLTDRELALGFHRAHRALEGKVGTLEADESMFGFLARLFERHGNAIIVPLQTRESSAVHRARDYLVENYTHDIGLEELAKLAGLSRAHLIRAFRKEFHITPHAFLTDKRVREAKALLRRGWSAADTAYHCGFADQAHFSRHFKARTGVTPGAYRSA", "soluble on expression in E. coli": "not soluble"}, {"sequence": "MGSDKIHHHHHHMLAERLVSDYDVEVLTTCVRDVATGENIYPEGEEEWNGVVIRRFRTNPVQREKERYFAKKAKPARKLRQFLFKLGILKYLSYLIPVWSYKHDDEVQAMKSDKFYSSALNDYIRDHIDEYKAFIAMSSDYVTFYYTALYAGRKTIAIPTMHNMGISFRSVLTSAFSKIAYVGFNTGEEQRLAENILGKALGAHGILSVGIEESLSADWAMTKEKFQLPEKYLLYIGRITPKKIHRLLTYFVNYKKKYSDSTLRLVLVGGLAMERFEHPDVIYTGFVSDEEKMSILQHADIVVNPSRYESLSLILLEAMSQKRPMLVNGHCKVLKEHCLKSDFASFYYMNNRGFNQALRRIEQSEDLREEMGEKGVFYVKSNYNWTLIMGRLKQAIKSI", "soluble on expression in E. coli": "not soluble"}, {"sequence": "MGSDKIHHHHHHMTERFQQKNISVPDGIWIMKQTWNDVLFAHWPVDVSILRALVPSVLELDTYNGQAWISMLPFMLTNLRARYLPVIPGARAFPELNLRTYVTYKGKPGIYFFSLDADHRLAVLGARTFFHLPYFYADMKSEKNGDAIDYVSKRKNDKEAAFHAAYRPISAPFTAEKDSLDYWLTDDTGSTPLIAISSITKTSIIIRGCCKTPKQKFQSIR", "soluble on expression in E. coli": "not soluble"}]}]}
